In PMC6391921:

Legend:
Experiment in all cases: BLI
[1] = target: H7ssF_C, H7 stabilized HA stem ferritin nanoparticle, design C (influenza A virus A/Shanghai/2/2013 (H7N9) | not stated) (UniProt Q9ZLI1)
[2] = target: H7ssF_E, H7 stabilized HA stem ferritin nanoparticle, design E (influenza A virus A/Shanghai/2/2013 (H7N9) | not stated) (UniProt Q9ZLI1)
[3] = target: H7ssF_J, H7 stabilized HA stem ferritin nanoparticle, design J (influenza A virus A/Shanghai/2/2013 (H7N9) | not stated) (UniProt Q9ZLI1)
[4] = target: H7ssF_I, H7 stabilized HA stem ferritin nanoparticle, design I (influenza A virus A/Shanghai/2/2013 (H7N9) | not stated) (UniProt Q9ZLI1)
[5] = target: H7ssF_F, H7 stabilized HA stem ferritin nanoparticle, design F (influenza A virus A/Shanghai/2/2013 (H7N9) | not stated) (UniProt Q9ZLI1)
[6] = target: H7ssF_B, H7 stabilized HA stem ferritin nanoparticle, design B (influenza A virus A/Shanghai/2/2013 (H7N9) | not stated) (UniProt Q9ZLI1)
[7] = target: H7ssF_D, H7 stabilized HA stem ferritin nanoparticle, design D (influenza A virus A/Shanghai/2/2013 (H7N9) | not stated) (UniProt Q9ZLI1)

## CT149 Fab
[1]
  Kd: 0.9 nM
  koff: 0.00053 s⁻¹
  kon: 600000 M⁻¹ s⁻¹
[2]
  Kd: 8.2 nM
  koff: 0.003 s⁻¹
  kon: 370000 M⁻¹ s⁻¹
[3]
  Kd: 9.8 nM
  koff: 0.0034 s⁻¹
  kon: 350000 M⁻¹ s⁻¹
[4]
  Kd: 7.2 nM
  koff: 0.0029 s⁻¹
  kon: 410000 M⁻¹ s⁻¹
[5]
  Kd: 2.7 nM
  koff: 0.0018 s⁻¹
  kon: 670000 M⁻¹ s⁻¹
[6]
  Kd: 7 nM
  koff: 0.003 s⁻¹
  kon: 420000 M⁻¹ s⁻¹
[7]
  Kd: 9 nM
  koff: 0.0033 s⁻¹
  kon: 370000 M⁻¹ s⁻¹
